From US20250092156A1

Target: FLAG-tagged WT RPTPα (WT-RPTPA, NM 008980.2, C-terminal FLAG) (mouse) (UniProt P18052)
Assay: FLIM-FRET, anti-HA A488 donor with anti-FLAG A568 acceptor; unquenched donor around 2.4 ns

Sequence of HA-tagged WT RPTPα (WT-RPTPA, NM 008980.2, C-terminal HA) (P18052 20-829): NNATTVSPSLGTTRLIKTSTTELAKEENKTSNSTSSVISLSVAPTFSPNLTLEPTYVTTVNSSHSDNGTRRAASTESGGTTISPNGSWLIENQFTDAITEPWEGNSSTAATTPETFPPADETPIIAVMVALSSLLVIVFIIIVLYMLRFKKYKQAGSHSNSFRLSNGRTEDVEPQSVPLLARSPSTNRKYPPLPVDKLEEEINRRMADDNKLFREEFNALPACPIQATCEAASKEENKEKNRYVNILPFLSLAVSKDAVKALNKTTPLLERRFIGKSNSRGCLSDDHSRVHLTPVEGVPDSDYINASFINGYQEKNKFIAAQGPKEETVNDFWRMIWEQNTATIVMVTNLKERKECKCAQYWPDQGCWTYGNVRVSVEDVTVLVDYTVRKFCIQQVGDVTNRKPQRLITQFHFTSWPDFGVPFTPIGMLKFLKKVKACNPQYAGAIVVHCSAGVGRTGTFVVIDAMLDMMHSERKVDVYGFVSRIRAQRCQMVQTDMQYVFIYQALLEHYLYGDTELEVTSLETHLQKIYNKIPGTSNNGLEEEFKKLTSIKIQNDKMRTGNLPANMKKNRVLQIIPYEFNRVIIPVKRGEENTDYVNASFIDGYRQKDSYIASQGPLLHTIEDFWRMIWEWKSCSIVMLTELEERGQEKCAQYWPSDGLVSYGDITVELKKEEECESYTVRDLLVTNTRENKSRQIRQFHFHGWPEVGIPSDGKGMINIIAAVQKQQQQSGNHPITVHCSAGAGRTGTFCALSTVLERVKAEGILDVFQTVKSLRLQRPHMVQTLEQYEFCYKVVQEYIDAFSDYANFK
Sequence of FLAG-tagged WT RPTPα (WT-RPTPA, NM 008980.2, C-terminal FLAG) (mouse) (P18052 20-829 limits assumed): as the sequence (P18052 20-829) above

- donor fluorescence lifetime of quenched (H-FRET) population: 1.15 ns
Substance: HA-tagged WT RPTPα (WT-RPTPA, NM 008980.2, C-terminal HA) (from UniProt P18052 20-829) (receptor)
